Assay results as given in patent US20230025525A1 (HELMHOLTZ ZENTRUM M NCHEN DEUTSCHES FORSCHUNGSZENTRUM F R …, published 2023).

B1: EIG-B 18B2 (antibody, V domains shown)
VH: QVQLKESGPGLVQPSQTLSLTCTVSGFSLTSYHISWVRQPPGKGLEWIAAISSGGDTYYNSLLKSRLSISRDTSKSQVFLKMNRLQTEDTAFYFCNGESYWGQGTLVTVSS
VL: DVVLTQSPATLSVTPGERISLSCRASENIDTYLHWFQQKPNESPRLLIKFASQSISGIPSRFSGSGSGRDFTLSINGVELEDLSIYYCQQGNILPYTFGAGTRLELKR
notes: Rat monoclonal antibody from a hybridoma; Only the variable regions are tied to the clone by name; also called EIG-B 1862
B2: EIG-B 10D9 (antibody, V domains shown)
VH: QVQLKESGPGLVQPSQTLSLTCTVSGFSLTSYHISWVRQPPGKGLEWIAAISSGGDTYYNSLLKSRLSISRDTSKSQVFLKMNRLQTEDTAFYFCNGESYWGQGTLVTVSS
VL: DVVLTQSPATLSVTPGERISLSCRASENIDTYLHWFQQKPNESPRLLIKFASQSISGIPSRFSGSGSGTDFTLSINGVELEDLSIYYCQQGNILPYTFGAGTKLELKR
notes: Rat monoclonal antibody from a hybridoma; Only the variable regions are tied to the clone by name; The constant regions are not tied to the clone
B3: EIG-D 26D7 (antibody, V domains shown)
VH: QVQLQQPGADLVRPGSSVKLSCKASGYSFTSYWMDWVKQRPGQGLEWIGNIYPSDGETHYNQKFKDKATLTVDKSSSTAYMQLSSLTSEDSAVYYCARLYSEYGSWGQGTTLTVSS
VL: DIVMTQSPSSLTVTTGEKVTMSCKSSQSLLNSGNQKNYLTWYQQRPGQPPKLLIYWASTRDSGVPDRFTGSGSGTDFTLTISSVQAADLAVYYCQNDYSYPLTFGAGTKLELKR
notes: Mouse monoclonal antibody from a hybridoma; Only the variable regions are tied to the clone by name; The constant regions are not tied to the clone

The binders below were run against T1, human IGFR-like receptor (UPF0577 protein KIAA1324) (human, UniProt Q6UXG2 42-1013) (assay: Western blot, MCF7 cell lysate (strong)).
T1 construct: Endogenous protein in lysates of human MCF7 cells and human islet cells, seen as a band of ~130 kDa on Western blot; also called IGFR-I; IGF3R
T1 sequence: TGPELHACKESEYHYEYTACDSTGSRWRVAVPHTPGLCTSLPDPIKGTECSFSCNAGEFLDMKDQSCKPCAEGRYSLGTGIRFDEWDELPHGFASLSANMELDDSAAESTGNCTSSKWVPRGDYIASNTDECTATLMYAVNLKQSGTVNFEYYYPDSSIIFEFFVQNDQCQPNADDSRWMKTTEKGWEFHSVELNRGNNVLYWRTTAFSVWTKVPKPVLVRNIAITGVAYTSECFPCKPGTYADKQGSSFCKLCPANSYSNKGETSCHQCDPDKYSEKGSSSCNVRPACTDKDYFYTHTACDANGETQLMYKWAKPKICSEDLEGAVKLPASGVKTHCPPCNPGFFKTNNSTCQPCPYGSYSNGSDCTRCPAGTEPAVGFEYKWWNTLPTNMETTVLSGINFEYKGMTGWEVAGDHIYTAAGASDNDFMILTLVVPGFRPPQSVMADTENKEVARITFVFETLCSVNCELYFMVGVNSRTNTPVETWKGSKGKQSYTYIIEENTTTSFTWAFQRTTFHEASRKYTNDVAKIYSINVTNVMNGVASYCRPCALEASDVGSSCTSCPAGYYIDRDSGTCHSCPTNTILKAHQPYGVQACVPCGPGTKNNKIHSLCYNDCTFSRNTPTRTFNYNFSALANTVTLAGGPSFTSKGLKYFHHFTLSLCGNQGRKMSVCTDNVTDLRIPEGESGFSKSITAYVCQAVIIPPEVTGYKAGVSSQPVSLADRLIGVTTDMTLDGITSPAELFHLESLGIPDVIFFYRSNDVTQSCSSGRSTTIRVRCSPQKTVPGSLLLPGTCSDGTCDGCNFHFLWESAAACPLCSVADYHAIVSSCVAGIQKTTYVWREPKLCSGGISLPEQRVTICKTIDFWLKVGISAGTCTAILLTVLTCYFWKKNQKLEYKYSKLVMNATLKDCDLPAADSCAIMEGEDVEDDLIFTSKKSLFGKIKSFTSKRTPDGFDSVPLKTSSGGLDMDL
From the text: FIG. 29: Detection of IGFR-like receptor in mouse Min6 insulinoma cells and human MCF7 breast cancer cells using antibody against the extracellular domain of IGFR-like receptor. Western blotting experiments show specific recognition of a protein band of ˜130 kDa in Min6 (weak) and MCF7 (strong) cell lysates by an antibody against the extracellular domain SEQ ID NO: 4 (EIG-B 1862: VHC: SEQ ID NO:31, VLC: SEQ ID NO:32; and 10D9: VHC: SEQ ID NO:33, VLC: SEQ ID NO:34) and SEQ ID NO: 6 (EIG-D 26D7: VHC: SEQ ID NO:35, VLC: SEQ ID NO:36). The EIG-B clones are monoclonal antibodies generated against the peptide SEQ ID NO: 4 in rat, whereas the EIG-D clone is a monoclonal antibody generated against the SEQ ID NO: 6 in mouse.
Cells and tissues were lysed in RIPA buffer (50 mM Tris pH7.5, 150 mM NaCl, 1 mM EDTA, 1% IGEPAL, 0.1% SDS, 0.1% Na deoxycholate) containing a cocktail of proteinase inhibitor (1:100, Sigma, P8340) and phosphatases inhibitors (1:100, Sigma Aldrich, #2 P0044 and #3 P5726) and the cell or tissue lysates were cleared by centrifugation at 13000 r.p.m. for 10-30 min. The proteins (10-20 μg) were resolved in 6.5-15% SDS-PAGE according to the protein size to be detected and transferred to a PVDF membrane. Primary antibodies were added to the membrane in 5% milk and incubated at 4° C. overnight. Protein bands were visualized on Hyperfilms™ (GE healthcare, 28906837) or Blaufilme™ CEA-RP (Ernst Christiansen GmbH, EC84A) by chemiluminescent detection (ECL, Millipore, WBKLS0500).

Binding result, binds:
B1
B2
B3
